{
  "source": "paper PMC3749867",
  "about": "“Evolutionarily conserved structural changes in phosphatidylinositol 5-phosphate 4-kinase (PI5P4K) isoforms are responsible for differences in enzyme activity and localization” (Biochemical Journal, 2013)",
  "details_in_all_cases": "PtdIns5P co-substrate, 10 mM MgCl2, pH 7.4, 30 °C, ATP 0–150 μM",
  "key": {"[1]": {"substrate": "Nc1ncnc2c1ncn2[C@@H]1O[C@H](COP(=O)(O)OP(=O)(O)OP(=O)(O)O)[C@@H](O)[C@H]1O", "assay": "radiometric lipid kinase assay, TLC", "format": "biochemical, Homo sapiens", "text": "radiometric lipid kinase assay, TLC on PI5P4Kβ"}, "[2]": {"substrate": "Nc1ncnc2c1ncn2[C@@H]1O[C@H](COP(=O)(O)OP(=O)(O)OP(=O)(O)O)[C@@H](O)[C@H]1O", "assay": "radiometric lipid kinase assay, TLC", "format": "biochemical, Homo sapiens", "remark": "listed apart in the source"}, "purified protein": {"substrate": "Nc1ncnc2c1ncn2[C@@H]1O[C@H](COP(=O)(O)OP(=O)(O)OP(=O)(O)O)[C@@H](O)[C@H]1O", "assay": "purified protein"}},
  "data": [
    {"protein": "PI5P4Kβ (Homo sapiens) (protein, full-length cDNA in pGEX6P, E. coli BL21(DE3), GST fusion or GST cleaved by PreScission; mutant PI5P4Kβ+ His-tagged; homodimer) MSSNCTSTTAVAVAPLSASKTKTKKKHFVCQKVKLFRASEPILSVLMWGVNHTINELSNVPVPVMLMPDDFKAYSKIKVDNHLFNKENLPSRFKFKEYCPMVFRNLRERFGIDDQDYQNSVTRSAPINSDSQGRCGTRFLTTYDRRFVIKTVSSEDVAEMHNILKKYHQFIVECHGNTLLPQFLGMYRLTVDGVETYMVVTRNVFSHRLTVHRKYDLKGSTVAREASDKEKAKDLPTFKDNDFLNEGQKLHVGEESKKNFLEKLKRDVEFLAQLKIMDYSLLVGIHDVDRAEQEEMEVEERAEDEECENDGVGGNLLCSYGTPPDSPGNLLSFPRFFGPGEFDPSVDVYAMKSHESSPKKEVYFMAIIDILTPYDTKKKAAHAAKTVKHGAGAEISTVNPEQYSKRFNEFMSNILT", "values": [
      {"measurement": "Km", "setting": "[1]", "result": 67.05, "unit": "µM"},
      {"measurement": "kcat", "setting": "[1]", "result": "9.55e-05", "unit": "s⁻¹"}
    ]},
    {"protein": "PI5P4Kα (Homo sapiens) (protein, full-length cDNA in pGEX6P, E. coli BL21(DE3), GST fusion or GST cleaved by PreScission; His6-tagged version used as standard for kcat conversion; homodimer) MATPGNLGSSVLASKTKTKKKHFVAQKVKLFRASDPLLSVLMWGVNHSINELSHVQIPVMLMPDDFKAYSKIKVDNHLFNKENMPSHFKFKEYCPMVFRNLRERFGIDDQDFQNSLTRSAPLPNDSQARSGARFHTSYDKRYIIKTITSEDVAEMHNILKKYHQYIVECHGITLLPQFLGMYRLNVDGVEIYVIVTRNVFSHRLSVYRKYDLKGSTVAREASDKEKAKELPTLKDNDFINEGQKIYIDDNNKKVFLEKLKKDVEFLAQLKLMDYSLLVGIHDVERAEQEEVECEENDGEEEGESDGTHPVGTPPDSPGNTLNSSPPLAPGEFDPNIDVYGIKCHENSPRKEVYFMAIIDILTHYDAKKKAAHAAKTVKHGAGAEISTVNPEQYSKRFLDFIGHILT", "values": [
      {"measurement": "Km", "setting": "[2]", "result": 3.94, "unit": "µM"},
      {"measurement": "kcat", "setting": "[2]", "result": 0.0105, "unit": "s⁻¹"}
    ]},
    {"protein": "PI5P4Kγ (Homo sapiens) (protein) ASSSVPPATVSAATAGPGPGFGFASKTKKKHFVQQKVKVFRAADPLVGVFLWGVAHSINELSQVPPPVMLLPDDFKASSKIKVNNHLFHRENLPSHFKFKEYCPQVFRNLRDRFGIDDQDYLVSLTRNPPSESEGSDGRFLISYDRTLVIKEVSSEDIADMHSNLSNYHQYIVKCHGNTLLPQFLGMYRVSVDNEDSYMLVMRNMFSHRLPVHRKYDLKGSLVSREASDKEKVKELPTLKDMDFLNKNQKVYIGEEEKKIFLEKLKRDVEFLVQLKIMDYSLLLGIHDIIRGSEPEEEAPVREDESEVDGDCSLTGPPALVGSYGTSPEGIGGYIHSHRPLGPGEFESFIDVYAIRSAEGAPQKEVYFMGLIDILTQYDAKKKAAHAAKTVKHGAGAEISTVHPEQYAKRFLDFITNIFA", "values": [
      {"measurement": "Km", "setting": "purified protein", "result": 94.18, "unit": "µM"},
      {"measurement": "kcat", "setting": "purified protein", "result": "5.72e-06", "unit": "s⁻¹"}
    ]}
  ]
}
